Results published in patent US20260015434A1, “ANTIBODY MATERIALS AND METHODS TARGETING MICROBIAL POLYSACCHARIDES” (priority 2022, published 2026).

Key:
TG10 binding to PNAG 0 = test: Monosaccharide inhibition of antibody binding on the array
Description: (§1) This example describes how TG10 binding is inhibited by glucosamine. For small molecule inhibition assays, arrays were blocked and washed as previously described. Antibodies F598 and TG10 were diluted to 5 μg/mL in binding buffer. 20 mM N-Acetyl glucosamine and 20 mM glucosamine in binding buffer was prepared and an equal volume of the monosaccharide solutions were added to the diluted antibodies. Antibody/monosaccharide samples were incubated at room temperature for 30 min with rotation prior to being applied to the array. For the TG10 glucosamine IC50 inhibition assay, TG10 was diluted to 30 nM in binding buffer. A pH adjusted 1M stock of Glucosamine.HCl in PBS with 3% BSA (pH 7.2) was prepared and a serial dilution in binding buffer was made. Equal volumes of TG10 and each of the serial diluted glucosamine stocks was combined. Antibody/monosaccharide samples were incubated at RT for 30 min with rotation prior to being applied to the array.
(§2) Monosaccharide inhibition of both TG10 and F598 was studied on the array. The antibodies were incubated with 10 mM glucosamine, galactosamine, N-acetyl glucosamine, and N-acetyl galactosamine and then applied to the array. The binding of TG10 with PNAG 0 and of F598 with PNAG 31 were analyzed with and without monosaccharide inhibitors (FIGS. 5A-5D). Glucosamine had the greatest effect on TG10 binding to PNAG 0, reducing signal intensity by 94% at 10 mM […] (100% at 100 mM […]). As expected, N-acetyl glucosamine inhibited F598 binding with PNAG 31, reducing RFU by 74% at 10 mM GlcNAc and 99% at 100 mM GlcNAc. […] To further illuminate the small molecule inhibition properties of glucosamine on TG10, IC50 values for glucosamine was determined by titrating GlcNH2 with TG10.

[1] = system: F598 binding with PNAG 31; test: as above
Description: as §1, §2

[2] = biological target: TG10 binding to PNAG 0, PNAG 1, and PNAG 16; test: TG10 glucosamine IC50 inhibition assay on the array; conditions: three best binding conjugates on the array (PNAG 0, PNAG 1, PNAG 16); TG10 diluted to 30 nM
Description: as §1
Monosaccharide inhibition of both TG10 and F598 was studied on the array. […] The binding of TG10 with PNAG 0 and of F598 with PNAG 31 were analyzed with and without monosaccharide inhibitors (FIGS. 5A-5D). […] To further illuminate the small molecule inhibition properties of glucosamine on TG10, IC50 values for glucosamine was determined by titrating GlcNH2 with TG10.

[3] = biological target: PNAG 0 (fully deacetylated glucosamine pentasaccharide conjugate); test: Glycan microarray binding / apparent KD
Description: (§3) Neoglycoprotein (NGP) microarray fabrication was performed as follows. Several NGP microarrays were constructed as previously described. Two large arrays (8 duplicate arrays per slide) composed of 815 and 870 neoglycoproteins, glycoproteins, glycopeptide conjugates, and controls were constructed and used for the experiments in this report. Additionally, a PNAG-focused array (16 duplicates per slide) with 49 array components was fabricated and used to determine apparent KD values. Array component parent stocks were diluted to 125-200 μg/mL into print buffer (1×PBS buffer with 2.5% (v/v) glycerol, 0.0005% (v/v) Triton-X 100, 0.0005 μg/mL soluble print dye 0.05 μg/mL Atto 532 (Sigma 06699). Formulated components were printed in duplicate onto 2D-Epoxy functionalized glass slides (Poly-An #104-00-221) or SuperEpoxy 2 microarray slides (ArrayIt) using an Arrayit NanoPrint LM60 arrayer at 60% humidity. Following the print, slides were scanned in a microarray fluorescence scanner (Innopsys, InnoScan 1100 AL) to validate that array components were successfully deposited onto the slide surface. Binding profiles for a representative set of lectins and antibodies were used as QC for each printed microarray batch. The printed NGP microarrays were stored under vacuum at −20° C.
(§4) Antibody selectivity and apparent KD were determined using a NGP microarray. A pre-assay scan was performed to control for missing features. Selectivity and affinity of most mAbs were measured on the full array. A focused array was used to acquire an apparent KD measurement. A slide module (8 well for full array and 16-well for focused array) was mounted onto each slide and blocking buffer (3% BSA in PBS, pH 7.4) was applied to each well of the array. Blocking was performed overnight at 4° C. mAbs were serial diluted in binding buffer (1% BSA in PBST, pH 7.4). Following the block, wells were washed 4× with wash buffer (PBST, PBS with 0.05% tween-20). Primary mAb incubation was performed for 2.5 hours at 37° C. The wells were washed 5× with wash buffer. A CY3-labeled secondary antibody specific for the Fc portion of human IgG was diluted 500 fold into binding buffer and added to each array well (Jackson ImmunoResearch, 109-165-098). Secondary mAb incubation was performed for 1.5 hours at 37° C. Wells were washed 5× with wash buffer. Slides were removed from the slide module and submerged in wash buffer for 5 minutes. Washed slides were dried by centrifugation @ 1000×g in a centrifuge quipped with a swing bucket rotor. Fluorescent scans were obtained at multiple PMT values to maximize dynamic range. Raw data was analyzed using GenePix 7.0 software as previously described. Selectivity profiles and apparent KD curves were plotted in excel and Graphpad Prism. Apparent Kos were determined using one-site specific binding algorithm in Graphpad Prism.

[4] = biological target: PNAG 1 (glucosamine tetrasaccharide with an N-acetyl glucosamine at the reducing end); test: Glycan microarray apparent KD; assay type: binding; conditions: PNAG 1 conjugate on the microarray
Description: as §3, with “Binding profiles for a representative set of lectins and antibodies were used as QC for each printed microarray batch. The printed NGP microarrays were stored under vacuum at −20° C.” left out
(§5) Antibody selectivity and apparent KD were determined using a NGP microarray. […] Selectivity and affinity of most mAbs were measured on the full array. […] Raw data was analyzed using GenePix 7.0 software as previously described. […]

[5] = biological target: PNAG 16 (glucosamine tetrasaccharide with an N-acetyl glucosamine at the terminal end); test: Glycan microarray apparent KD; assay type: binding; conditions: PNAG 16 conjugate on the microarray
Description: as §3, with “Binding profiles for a representative set of lectins and antibodies were used as QC for each printed microarray batch. The printed NGP microarrays were stored under vacuum at −20° C.” left out
as §5

S. epidermidis biofilms = test: S. epidermidis biofilm staining, confocal microscopy; assay type: cell-based, Staphylococcus epidermidis; conditions: fluorescently labeled antibodies at 5 μg/ml, fixed 20 hr biofilms
Description: For antibody labeling, recombinantly expressed antibodies were labeled with fluorescent dyes using Invitrogen antibody dye labeling kits. Concentration and labeling efficiency was confirmed using nanodrop. For S. epidermidis biofilm formation and confocal microscopy, Staphylococcus epidermidis (Winslow and Winslow) Evans ATCC 14990 was resuspended and cultured on tryptic soy broth agar plates according to ATCC recommended procedures. Single colonies were picked into 5 mL Tryptic Soy Broth (TSB) supplemented with 0.25% glucose (BD™ TSB) and bacteria were cultured overnight at 37 C with shaking (200 RPM). The overnight culture was diluted 1:100 into aerated TSB26. 400 μl (microliters) of the aerated culture was pipetted into 8-well chambered coverglass lab-tek II system suitable for confocal microscopy. Biofilms were allowed to mature for 20 hrs @37C without agitation. Mature films were washed 2×500 μl PBS to remove planktonic bacteria. The films were fixed in 4% paraformaldehyde in PBS for 30 minutes, washed 2×500 μl PBS and stained with fluorescently labeled antibodies diluted to 5 μg/ml. The labeled films were then washed 2×500 μl PBS and then stained for 10 minutes with Hoechst stain @ 10 μg/ml. The films were washed a final time and kept under PBS for imaging. […]

[6] = system: Staphylococcus epidermidis (ATCC 35984) suspension culture; test: Labeled antibody incubation with suspension cultures of microorganisms; assay type: cell-based; conditions: Alexa Fluor 488 labeled TG10; data not shown
[7] = system: S. aureus ATCC 29213 cells; test: Binding to planktonic S. aureus, fluorescence microscopy; assay type: cell-based; conditions: labeled mAb, 20 μg/mL, fixed planktonic cells
Description: (§6) TG10 binding was evaluated in the PNAG producing strains of S. aureus ATCC 29213 and Xen 36 following overnight culturing with shaking in TSB and TB, respectively. The cells were pelleted, fixed in 4% paraformaldehyde and coated on glass chips. The plated cells were extensively washed followed by incubation with 488-labeled TG10 or 488-labeled F598 prior fluorescent microscopy. For evaluating TG10 and F598 binding with S. aureus, S. aureus […] and Xen 36 were grown in TSB and LB overnight, respectively. Cells were pelleted and fixed in 4% paraformaldehyde. Cells were calibrated to OD 0.5. 100 μl suspension were used for each sample. Each sample were pelleted and resuspended in 20 μg/mL mAb TG10, F598 or both. After shaking for 2 hours under ambient temperature, cells were pelleted, washed and transferred to glass chips and allowed to air dry. A cover slide was mounted via anti-fade media.

S. aureus Xen 36 cells = test: as above; assay type: cell-based; conditions: labeled mAb, 20 μg/mL, fixed planktonic cells
Description: as §6

S. aureus ATCC 29213 = test: Passive immunization, S. aureus lethal dose challenge in a murine model; assay type: in vivo, Balb/C mice; conditions: 200 μg mAb intraperitoneally one hour before 200 million cfu via tail vein
Description: An in vivo study was performed to evaluate the prophylactic efficacy of TG10 against a S. aureus lethal dose challenge in a murine model of infection. TG10 and F598 were evaluated as monotherapies and as a mAb cocktail. […] The combination provided 90% survival.
Balb/C mice aged 12 weeks (n=10/group) were passively immunized with 200 μg F598, 200μ g TG10, or 100μ g F598+100μ g TG10 in 100 μl PBS intraperitoneally. 100 μl PBS was injected intraperitoneally in the negative control group (n=5). One hour later, 200 million cfu S. aureus ATCC 29213 cells were administrated via tail vein. Mice condition was monitored. A mouse unable to move or which lost more than 20% body mass was euthanized. Survival was better in all three groups when compared to the PBS control arm.

[8] = system: PNAG conjugates on the array (dPNAG, PNAG and intermediate levels of deacetylation); test: Neoglycoprotein (glycan) microarray binding, 816-component array; conditions: for PNAG Binding on Array: ability to bind both dPNAG and PNAG and intermediate levels of deacetylation
[9] = system: PNAG conjugates on the array (dPNAG, PNAG and intermediate levels of deacetylation); test: as above; conditions: single point mutations
Description: as §3, §4

With `CC(=O)N[C@H]1C(O)O[C@H](CO)[C@H](O)[C@@H]1O` (stereo partly shown) [N-acetyl galactosamine] the “reduction of signal intensity of TG10 binding to PNAG 0” value (from here on “reduction … to PNAG 0”) (TG10 binding to PNAG 0; 10 mM monosaccharide) was “unchanged”.

In the case of `CC(=O)N[C@H]1C(O)O[C@H](CO)[C@@H](O)[C@@H]1O` (stereo partly shown) [N-acetyl glucosamine], the “reduction of RFU of F598 binding with PNAG 31” value ([1]; 10 mM monosaccharide) is reported as 74%, the “reduction of RFU of F598 binding with PNAG 31” value ([1]; 100 mM monosaccharide) is reported as 99% and the “reduction … to PNAG 0” value (TG10 binding to PNAG 0; 10 mM monosaccharide) is reported as 15%.

`N[C@H]1C(O)O[C@H](CO)[C@@H](O)[C@@H]1O` (stereo partly shown) [glucosamine] was tested, and the “reduction … to PNAG 0” value (TG10 binding to PNAG 0; 10 mM monosaccharide) was 94%, the “reduction … to PNAG 0” value (TG10 binding to PNAG 0; 100 mM monosaccharide) was 100% and the IC50 [2] was 1000 to 2000 µM.

For `N[C@H]1C(O)O[C@H](CO)[C@H](O)[C@@H]1O` (stereo partly shown) [galactosamine], the “reduction … to PNAG 0” value (TG10 binding to PNAG 0; 10 mM monosaccharide) was 45%.

B1: TG10: Antibody, HC SEQ ID NO: 3, LC SEQ ID NO: 12; primer mutations in ADI-45379 reverted to germline (antibody, V domains shown)
VH: EVQLVESGGGLVQPGGSLRLSCAVSGFPFSSYWMSWVRQAPGKGLEWVANIKEDGSEKYYVDSVKGRFTISRDNAKNSLYLQMNSLRAEDTAVYYCATDPDVGLSDSWGQGTLVTVSS
VL: EIVLTQSPGTLSLSPGDRATHSCRASQSVSRSYLAWYQQKPGQTPRLFIYGASNRATGIPDRFSGSGSGTYFTLTISRLEPEDFAVYYCQQYDSAPDTFGQGTRLEIK
modifications: TG10 Heavy Chain Variable Region; TG10 Light Chain Variable Region
notes: primer mutations in ADI-45379 reverted to germline
In the case of B1, the Kd ([3]; PNAG 0 conjugate on the microarray) is reported as 0.0083 µM, the “apparent KD” value ([3]; PNAG 0 conjugate on the microarray, given in mass concentration) is reported as 1.25 µg/mL and the Kd [4] is reported as 0.0115 µM. For the same molecule, the Kd [5] was 0.019 µM, the “localization of labeled antibody within the biofilm” value (S. epidermidis biofilms) was “isolated to core cells within the microcolonies” and the “fluorescent microscopy of spun-down culture” value [6] was “strong fluorescent signal”. For the same molecule, the binding to cells [7] was “bound”, the binding to cells (S. aureus Xen 36 cells) was “bound” and the “survival compared to the PBS control group” value (S. aureus ATCC 29213) was “increased survival”. The “selectivity among PNAG glycoconjugates on the array” value ([8]; 816-component array) was “excellent selectivity for the highly deacetylated PNAG conjugates PNAG 0 and PNAG 1” and the “PNAG Binding on Array” value [8] was “Yes”.

B2: TG10 LC D116A: TG10 HC (SEQ ID NO: 3) with TG10 LC D116A (SEQ ID NO: 49) (antibody, V domains shown)
VH: EVQLVESGGGLVQPGGSLRLSCAVSGFPFSSYWMSWVRQAPGKGLEWVANIKEDGSEKYYVDSVKGRFTISRDNAKNSLYLQMNSLRAEDTAVYYCATDPDVGLSDSWGQGTLVTVSS
VL: EIVLTQSPGTLSLSPGDRATHSCRASQSVSRSYLAWYQQKPGQTPRLFIYGASNRATGIPDRFSGSGSGTYFTLTISRLEPEDFAVYYCQQYDSAPATFGQGTRLEIK
modifications: TG10 Heavy Chain Variable Region; Site directed mutatation of TG10 HC Variable Region
In the case of B2, the “function of TG10 variant (binding to PNAG conjugates on the array)” value [9] is reported as “functionally dead”, the “effect of single point mutation on binding between TG10 and PNAG 0” value ([3]; fully deacetylated PNAG conjugate PNAG 0) is reported as “completely removed binding” and the “PNAG Binding on Array” value [8] is reported as “No”.
